From US8153134

Molecular target: human MDL-1 (human) (UniProt Q9NY25)
Experiment: cell-based or functional assay

Sequence of human MDL-1 (human) (Q9NY25 whole entry): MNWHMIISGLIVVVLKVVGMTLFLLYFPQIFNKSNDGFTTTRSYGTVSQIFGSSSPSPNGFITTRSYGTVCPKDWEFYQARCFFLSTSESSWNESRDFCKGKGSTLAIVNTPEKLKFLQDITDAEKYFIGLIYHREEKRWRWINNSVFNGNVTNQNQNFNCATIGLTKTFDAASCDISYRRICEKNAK

“rat isotype control mAb (rIgG1) (antibody)” was tested, and the secreted beta-hexosaminidase, OD (405-570), DT808 mouse mast cells, cross-link was 0.065 OD (405-570) and the secreted beta-hexosaminidase, OD (405-570), DT808 mouse mast cells, no cross-link was 0.1 OD (405-570).
